Kd data for one substance are collected here from article PMC9032829.

The test concerns the target entire receptor binding domain (RBD) of SARS-CoV-2 Spike protein (SARS-CoV-2) (UniProt P0DTC2). Put plainly: SPR. Background: Surface plasmon resonance follows binding to a sensor surface in real time, without labels.

“And” between values parts separate entries of the source, which are not always exact repeats. Equal values may be shown once.

“soluble αvβ3 integrin (from UniProt P06756;P05106) (complex)”: the Kd (commonly the free concentration of one partner at which half of the binding sites on the other are occupied at equilibrium, for simple one-to-one binding) is 6.3 nM and 59.3 nM.
